Test results reported in publication PMC8327961, “Nse5/6 inhibits the Smc5/6 ATPase and modulates DNA substrate binding” (The EMBO Journal, 2021).

B1: Nse5-AviTag (from Nse5-AviTag-3C-Twin-Strep, Twin-Strep removed) (natural protein, S. cerevisiae, UniProt Q03718 1-556, looked up)
chain: MDGALINSVLYVSPRNGAHYFVELTEKHLLAFEMLNSMCLLENYDHVLLFLECQFGKSHNLAVIPFDIILVLFTLSTLSEYYKEPILRANDPYNTSRETLSRRALKLLQKYLAILKEFDSEQYNLYDLELLRCQFFLAIDTLTPKKQKWGFDRFRRTKSESGVTYRQNASVDPELDQAKTFKNPYRSYISCLEQRNTILGNRLLNLKLNEPGEFINMILWTLSNSLQESTPLFLSSHEIWMPLLEILIDLFSCRQDYFIQHEVAQNVSKSLFVQRLSESPLAVFFESLNTRNFANRFSEYVFLNCDYKLPSDNYATPVHPVYNGENTIVDTYIPTIKCSPLYKSQKSLALRRKLIGSCFKLLLRVPDGHRLITPRIVADDVIQGISRTLASFNDILQFKKFFMTENLSQESYFIPLLAEGTLSEILKDTQECVVILTLVENLSDGVSFCNEVIGLVKSKCFAFTEQCSQASYEEAVLNIEKCDVCLLVLLRYLLHLIGTEAILDAKEQLEMLHAIEKNDSGRRQWAKALNLGNDPPLLYPIVSQMFGVHDKSVIIE
notes: Nse5, S. cerevisiae, full length; subunit of the octamer used for XL-MS; the AviTag lies before the 3C site and should remain; source: E. coli (DE3) Rosetta, co-expressed with Nse6, purified (StrepTrap, heparin, SEC); Twin-Strep removed by HRV-3C; not shown: Twin-Strep (after a 3C site), C-terminal, cleaved
B2: Smc5 (natural protein, S. cerevisiae, UniProt Q08204 1-1093, looked up)
chain: MTSLIDLGRYVERTHHGEDTEPRSKRVKIAKPDLSSFQPGSIIKIRLQDFVTYTLTEFNLSPSLNMIIGPNGSGKSTFVCAVCLGLAGKPEYIGRSKKVEDFIKNGQDVSKIEITLKNSPNVTDIEYIDARDETIKITRIITRSKRRSDYLINDYQVSESVVKTLVAQLNIQLDNLCQFLSQERVEEFARLKSVKLLVETIRSIDASLLDVLDELRELQGNEQSLQKDLDFKKAKIVHLRQESDKLRKSVESLRDFQNKKGEIELHSQLLPYVKVKDHKEKLNIYKEEYERAKANLRAILKDKKPFANTKKTLENQVEELTEKCSLKTDEFLKAKEKINEIFEKLNTIRDEVIKKKNQNEYYRGRTKKLQATIISTKEDFLRSQEILAQTHLPEKSVFEDIDIKRKEIINKEGEIRDLISEIDAKANAINHEMRSIQRQAESKTKSLTTTDKIGILNQDQDLKEVRDAVLMVREHPEMKDKILEPPIMTVSAINAQFAAYLAQCVDYNTSKALTVVDSDSYKLFANPILDKFKVNLRELSSADTTPPVPAETVRDLGFEGYLSDFITGDKRVMKMLCQTSKIHTIPVSRRELTPAQIKKLITPRPNGKILFKRIIHGNRLVDIKQSAYGSKQVFPTDVSIKQTNFYQGSIMSNEQKIRIENEIINLKNEYNDRKSTLDALSNQKSGYRHELSELASKNDDINREAHQLNEIRKKYTMRKSTIETLREKLDQLKREARKDVSQKIKDIDDQIQQLLLKQRHLLSKMASSMKSLKNCQKELISTQILQFEAQNMDVSMNDVIGFFNEREADLKSQYEDKKKFVKEMRDTPEFQSWMREIRSYDQDTKEKLNKVAEKYEEEGNFNLSFVQDVLDKLESEIAMVNHDESAVTILDQVTAELRELEHTVPQQSKDLETIKAKLKEDHAVLEPKLDDIVSKISARFARLFNNVGSAGAVRLEKPKDYAEWKIEIMVKFRDNAPLKKLDSHTQSGGERAVSTVLYMIALQEFTSAPFRVVDEINQGMDSRNERIVHKAMVENACAENTSQYFLITPKLLTGLHYHEKMRIHCVMAGSWIPNPSEDPKMIHFGETSNYSFD
notes: Smc5, S. cerevisiae; stood in the assays as a subunit of the hexamer or octamer; source: E. coli (DE3) Rosetta, co-expressed with the other subunits of the hexamer, purified as part of the complex
B3: Nse2 (natural protein, S. cerevisiae, UniProt P38632 1-267, looked up)
chain: MALNDNPIPKSVPLHPKSGKYFHNLHARDLSNIYQQCYKQIDETINQLVDSTSPSTIGIEEQVADITSTYKLLSTYESESNSFDEHIKDLKKNFKQSSDACPQIDLSTWDKYRTGELTAPKLSELYLNMPTPEPATMVNNTDTLKILKVLPYIWNDPTCVIPDLQNPADEDDLQIEGGKIELTCPITCKPYEAPLISRKCNHVFDRDGIQNYLQGYTTRDCPQAACSQVVSMRDFVRDPIMELRCKIAKMKESQEQDKRSSQAIDVL
notes: Nse2, S. cerevisiae; source: E. coli (DE3) Rosetta, co-expressed with the other subunits of the hexamer, purified as part of the complex
B4: Nse4 (natural protein, S. cerevisiae, UniProt P43124 1-402, looked up)
chain: MSSTVISRKRRNSTVTEPDSSGETRKQKKSRSDEKSSSSKDGDPQLEFKVLQGYRDLESEMHKGRAQVTRTGDIGVAMDNLNAVDSLFNKVIGIKNNGLFAHDARAMVSISELAQISVRNLKFDDSRSMVNLENIVNSLKRYMLKEHFKLNNIAENRNDLTLAADEQSAADQQEESDGDIDRTPDDNHTDKATSSFKATSMRHSYLQQFSHYNEFSQFNWFRIGALYNTISKNAPITDHLMGPLSIEKKPRVLTQRRRNNDQVGEKITAEKITQHSLNSTQQETTPEQVKKCFKKLSKKLGPEGSINLFKFIIDPNSFSRSIENLFYTSFLIKEGKLLMEHDEEGLPTIKIKQSISHTDSRSKEIERQRRRAAHQNHIIFQMDMPTWRKLIKKYNITSPFLD
notes: Nse4, S. cerevisiae; also called kleisin Nse4; source: E. coli (DE3) Rosetta, co-expressed with the other subunits of the hexamer, purified as part of the complex
B5: Nse3 (natural protein, S. cerevisiae, UniProt Q05541 1-303, looked up)
chain: MSSIDNDSDVDLTEDLAVAKIVKENPVARKMVRYILSRGESQNSIITRNKLQSVIHEAAREENIAKPSFSKMFMDINAILYNVYGFELQGLPSKNNMNAGGNGSNSNTNKSMPEPLGHRAQKFILLNNVPHSKNFDDFKILQSAHTYEELIVTGEYIGDDIASGTSNTLESKLSTDRDLVYKGVLSVILCIVFFSKNNILHQELIKFLETFGIPSDGSKIAILNITIEDLIKSLEKREYIVRLEEKSDTDGEVISYRIGRRTQAELGLESLEKLVQEIMGLEKEQTKSLHDDIIKSIGDSYSI
notes: Nse3, S. cerevisiae; source: E. coli (DE3) Rosetta, co-expressed with the other subunits of the hexamer, purified as part of the complex

Key:
[1] = molecular target: Smc5/6 hexamer (Smc5, Smc6, Nse1, Nse2, Nse3, Nse4) (Saccharomyces cerevisiae) (UniProt Q08204+Q12749+Q07913+P38632+Q05541+P43124); assay: fluorescence anisotropy; conditions: ATPase buffer: 10 mM Hepes-KOH pH 7.5, 150 mM K-OAc, 2 mM MgCl2, 20% glycerol; anisotropy at 25 C; plasmid pulldown bound at room temperature, high-salt buffer …
[2] = molecular target: Smc5/6 octamer (hexamer plus Nse5/6) (Saccharomyces cerevisiae, UniProt Q08204;Q12749;Q07913;P38632;Q05541;P43124;Q03718;P40026 …); assay: fluorescence anisotropy; conditions: ATPase buffer: 10 mM Hepes-KOH pH 7.5, 150 mM K-OAc, 2 mM MgCl2, 20% glycerol; anisotropy at 25 C; plasmid pulldown bound at room temperature, high-salt buffer …
Nse1/3/4 sub-complex = molecular target: T1, Nse1/3/4 sub-complex (S. cerevisiae, UniProt Q07913 1-336; Q05541 1-303; P43124 1-402); assay: cross-linking; XL-MS with the lysine-reactive PhoX (0.25 mM, 20 min, RT) on the reconstituted octamer, 1.6 µM; salt buffer 20 mM Hepes-KOH pH 7.5, 250 mM NaCl; conditions: both partners purified
T1 construct: Nse1, S. cerevisiae; Nse3, S. cerevisiae; Nse4, S. cerevisiae; used where the text names only the module as the partner of a cross-link and not which subunit; also called Nse1/3/4 module; Nse4/3/1 module; source: E. coli (DE3) Rosetta, purified as part of the hexamer and octamer; copies: + +
T1 sequence (looked up) 1: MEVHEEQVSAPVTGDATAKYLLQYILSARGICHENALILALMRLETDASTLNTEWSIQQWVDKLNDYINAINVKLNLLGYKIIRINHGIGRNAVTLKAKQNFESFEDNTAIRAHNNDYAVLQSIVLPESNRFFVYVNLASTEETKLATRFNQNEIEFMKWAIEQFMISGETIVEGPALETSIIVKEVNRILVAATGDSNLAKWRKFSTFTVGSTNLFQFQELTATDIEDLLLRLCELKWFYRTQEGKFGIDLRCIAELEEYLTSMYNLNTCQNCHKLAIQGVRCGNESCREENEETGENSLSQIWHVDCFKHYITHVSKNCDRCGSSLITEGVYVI
T1 sequence (looked up) 2: B5 chain
T1 sequence (looked up) 3: B4 chain

[3] = molecular target: T2, Smc6 (Twin-Strep-tag removed, as in the octamer for lysine cross-linking) (S. cerevisiae, UniProt Q12749 1-1114); assay: as above; conditions: both partners purified
T2 construct: Smc6, S. cerevisiae; subunit of the octamer used for XL-MS; source: E. coli (DE3) Rosetta, purified as part of the hexamer; tag removed by HRV-3C before SEC of the octamer; not shown: Twin-Strep (after a 3C site), C-terminal, cleaved
T2 sequence (looked up): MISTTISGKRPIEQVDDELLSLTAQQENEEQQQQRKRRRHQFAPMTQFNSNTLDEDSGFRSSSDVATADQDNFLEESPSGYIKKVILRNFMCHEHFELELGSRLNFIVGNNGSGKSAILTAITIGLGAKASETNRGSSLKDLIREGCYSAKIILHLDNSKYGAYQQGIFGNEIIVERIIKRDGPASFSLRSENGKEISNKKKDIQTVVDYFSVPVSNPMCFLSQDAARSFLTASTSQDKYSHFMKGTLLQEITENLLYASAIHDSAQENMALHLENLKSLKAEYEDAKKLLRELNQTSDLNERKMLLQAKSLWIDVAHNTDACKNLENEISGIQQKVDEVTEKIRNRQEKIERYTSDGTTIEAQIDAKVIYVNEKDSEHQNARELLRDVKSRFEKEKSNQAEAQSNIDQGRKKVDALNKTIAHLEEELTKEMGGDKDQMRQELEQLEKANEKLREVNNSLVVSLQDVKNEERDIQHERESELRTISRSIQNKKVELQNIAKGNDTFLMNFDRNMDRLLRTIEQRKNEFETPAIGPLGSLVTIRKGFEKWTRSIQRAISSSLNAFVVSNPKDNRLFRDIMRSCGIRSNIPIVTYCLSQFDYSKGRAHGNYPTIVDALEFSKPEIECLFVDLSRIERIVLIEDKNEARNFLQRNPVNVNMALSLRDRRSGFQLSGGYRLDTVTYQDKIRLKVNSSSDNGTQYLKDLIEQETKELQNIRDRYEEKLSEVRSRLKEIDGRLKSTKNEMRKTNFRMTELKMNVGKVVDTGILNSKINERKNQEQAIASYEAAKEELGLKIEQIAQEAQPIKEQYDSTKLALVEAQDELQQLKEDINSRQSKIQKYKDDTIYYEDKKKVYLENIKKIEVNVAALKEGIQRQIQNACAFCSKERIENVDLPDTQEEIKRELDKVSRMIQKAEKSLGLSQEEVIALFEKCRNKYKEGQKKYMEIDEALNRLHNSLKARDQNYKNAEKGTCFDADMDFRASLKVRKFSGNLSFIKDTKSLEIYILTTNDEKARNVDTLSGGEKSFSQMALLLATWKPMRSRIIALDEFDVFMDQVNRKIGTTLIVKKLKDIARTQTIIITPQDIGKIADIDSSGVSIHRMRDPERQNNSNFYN

[4] = molecular target: T2, Smc6 (Twin-Strep-tag removed, as in the …); assay: cross-linking; XL-MS with PhoX (0.25 mM, 20 min, RT) on the octamer, 1.6 µM; ATPase buffer (10 mM Hepes-KOH pH 7.5, 150 mM potassium acetate, 2 mM MgCl2, 20% glycerol); without and with 2 mM ATP and 16 nM plasmid DNA; wild-type and Smc5(EQ)/Smc6(EQ) octamers; conditions: both partners purified

Smc5/6 octamer (hexamer plus Nse5/6), sequence (P40026 whole entry, one chain of several): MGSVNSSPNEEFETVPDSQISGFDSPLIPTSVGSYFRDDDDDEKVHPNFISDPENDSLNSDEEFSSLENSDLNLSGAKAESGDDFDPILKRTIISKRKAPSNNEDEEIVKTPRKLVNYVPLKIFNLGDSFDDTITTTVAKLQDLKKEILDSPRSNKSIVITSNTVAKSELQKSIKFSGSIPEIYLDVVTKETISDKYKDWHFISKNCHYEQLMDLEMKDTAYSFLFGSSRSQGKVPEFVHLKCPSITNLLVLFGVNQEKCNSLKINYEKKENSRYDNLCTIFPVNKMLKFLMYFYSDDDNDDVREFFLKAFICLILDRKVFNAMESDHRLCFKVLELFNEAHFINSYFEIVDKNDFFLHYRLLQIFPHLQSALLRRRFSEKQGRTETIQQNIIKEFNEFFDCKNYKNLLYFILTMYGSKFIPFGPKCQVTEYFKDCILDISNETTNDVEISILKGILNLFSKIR

Molecule | binding result [3] | binding result [4] | also measured
40-mer ssDNA |  |  | Kd [1]: 150 nM; Kd [2]: 100 nM
B1 | binds |  | binding result (Nse1/3/4 sub-complex): binds
B2 | binds |  | 
B3 |  | binds | 
B4 |  | binds | 
B5 |  | binds | 
